The text below walks through data of publication PMC10705377.

This assay has as its target GluA2-TARPγ2 fusion construct (rat GluA2, GT linker, mouse TARPγ2 truncated following M4) (rat | mouse). Nature of the assay: cryo-EM structure.

In turn, “GluA2-TARPγ2 fusion construct (rat GluA2, GT linker, mouse TARPγ2 truncated following M4) (receptor)” returned a stoichiometry N of 4.
